Data on 47 sequences can be found in the NTF2 design screens of Basanta et al. (2020).

The nature of this data set: protease stability score; higher = more stable; yeast display proteolysis, trypsin and chymotrypsin.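 Further: relative to predicted unfolded state with 0 unfolded-like and 1 meaning tenfold more protease.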
With “DESEELAERLLEEMEELILTGDWEKFVRMVDPHARFVIGEFDNHGRETFVKELLELRVHIRDSRIREIDVQGEKIRMHTQIDFEIDVDGVRHRREHSFHFIVLKIDGRWSVQQLRIK”, the protease stability score is 0.64.
“DESEELAKQFMEVLARSMRTGDEEKIVKMLDPNVKVVINGVELHGREALEHILREIRVEDVWLTHIFVQGEKVRIDYREKGEFNGRLDTLTVHIIVKKIDGKWKITEFRIH” returned a protease stability score of 1.89.
On to “DESEELSRIASHLFLRMMHTGNEEEISKLADPNTRLDVNGKHFHGMELIIHFLHELRRKLGVKYIRLKSVHITIVNGKVDLELEGDLLQGDFEIPSHIRNIALKVDGKWFIHRQEFRFE”, for which the protease stability score was determined as 1.32.
As for “DESEELTEELSRLWLHWYLTGDEEIFKHNFDPNARQDYNGKEIHGRDRVVRFLEELWRMLGAKHFHIRHEEYYGNKVRIEGHITVGDKHRETEIQINIINGKIKEIRIEVK”, the protease stability score stood at 2.12.
Sequence “DESEELTKEAKRVYYETMRTGDEHNLKRLMDPNTRMDFNGVEFHGREAVKILVEQADHLEDVRIKRERVDEHEVELHGEFHGKVNGRHTTTHVILFWLKYNGRWRVKELQVR” came in with a protease stability score of 0.84.
“DESEELVRRFLEERIQDLRTGNWERIHENLDPNVRLIVNGRIFHGREALHVFRRRVDHNEDEKIRDVRIQGDKAEVDMEVLGVVNGVRTNFEAKLIMTKFDGKWSVKEVQID” returned a protease stability score of 1.75.
Next, “DESEERSRHATELFIRAIHTGDEHTLMNLLDPHVRTHYGDKEVHGRENVVKVMLELLHKLGADHVRWEYHDFKDINGRLHMDWRLHVVVGDKELTLQTHIITEKINGRWHSKYMEIR”: 0.183.
Regarding “DESEESALKFLKEWREHFRTGNEDHMEELADPNVRVVIGDKEYHGWEETSRLISEKLRHMRVKFVLHTIRVVDGRIHVKSSLIIEVGDKELRVETSYHFEKVNGRWRLRVIHQE”, the protease stability score was found to be 1.27.
“DESEESIRKVVKLLERAHRTGDEHEMKHLLDPNAKLIINGVELHGMELFEKLFKFERHHWRLHSMHVRHVDTQGDKANSDGEEDREFDGRREEVKTIIVMVKIDGRWHVKHIIFL”: the protease stability score came out at 1.08.
In turn, “DESEESMRHALEEIIESMVTGDEDRLRELADPNVRSKVNGRDIHGWKVVSKLVKELRIRDVKVEDKDREVQGEWMYFHGLFRIDGEFDGRRVDLELDLTIIAHKVNGRWVIRMFKYR” yielded a protease stability score of 1.63.
As for “DESEESSKEAWRLLLEMWKTGDEDEYSRMIDPNVRIEIGDKHFHGMEHASKRLQTFLKKLGFKHFRMILRDKDSQGNKIEIDLQIDIHQGDYHIHRRVTLILVKVDGKWSVESHHVI”, the protease stability score was found to be 1.68.
In the case of “DESEETAVRMFKHWIRMIETGDEDSLEELADPNVRLEVNGQEVHGRELFLRFFLEMRIKRVRLRHIETQGEKLIIHGELDGEINGRRQETRVIIIVRKVDGKWIIKSIRIE”, the protease stability score came to 2.76.
Next, “DESEHAAKHVSELFRELVDTGDEKFHEEFADPNVRLDYGDKHYHGREIQLRIFREWRIHHIEDKDVEVQGDKIFVDGRLDGTVDGRRQHYKIILIWRKVNGRWLSTQIRFH”: 1.59; “DESEKDSHMASLHIIELIETGDWRELRELLDPRTRLHIGDKDIHGREEALRNIIRVWHHMRIHRVHIRSIRLQGDYVRVEFEVDGTIDGKHHRIEVEFVAQKIDGRWHLKSEIYH”: 1.12; “DESEKHAEEFLRLLEESLLTGNWKFISELLDPRARTDYNGRDLHGRETMERWVKDFVRHIRIDHINNKTIDVQGDKVIIIGEVDGTINGRRERLEVHIFFLKVNGRWYLESTEFR”: 1.27.
Regarding “DESEKIMEDATKEHVKSFETGDFHTLLRQLDPHVRNNVNGVELHGREDVIRVLRELMERFPNVRVHIERIEVIGDKVNIKVNWNFNGVIVDVNIIAAKINGRWVNREMEVR”, the protease stability score came out at 0.966.
The sequence “DESEKLEELIHERLRHLIETGDEDKLAKMADPNVRNRVGDFVHHGRERSHELLKWIFDHLGIDHLHIKHSSVIDGVVHFEIELRINGRTIRLHDHWFFINGRLDEISIHWE” returned a protease stability score of 0.93.
In turn, “DESEKLVERLTEDFRKAFETGDEKRLYNLMDPNVRLDINGVEIIGRELISKDLAHDLRRFKNVKMEFRLREIRVIGNFAHIDGRDIINVDGVEKYHESNYIVHKIDGRWHIKEIIIH” registered a protease stability score of 1.52.
Sequence “DESEKMFKEIWRLLIESHRTGDEDSLERLADPHARMDFNGVEHHGRRELVRILSEHYKRVDHIHLIIRDMDVQGNKVTMRGELVLEFNGRRQTHDVTIILSKVDGVWYLHSIIVR” showed a protease stability score of 1.53.
Consider “DESEKSAFRFFEEMTKVLSTGDEETFLKMLDPNTRLEVGDKERHGREDFIRLMRHLWEVLGADHVHIHVKDIKVVNGRADIDTDLIIYVNGKTIHRDTQIIVLKIDGRWVLTSMEVE”, for which the protease stability score is 2.02.
“DESEKYLKDAVEILIRVIRTGDEHTMKELLDPNVRLHAENHESHGRELLEWWTRRIDHVNDSKIEDMRTVGDYVELDMRLHTVFNGQTIDIKTTFIIIKVNGKWQLRSVHIH” yielded a protease stability score of 1.26.
“DESERDFRRALEIMHKVVETGNWEEAKRMFDPHVLLDVNGVLIHGREVIIKYVERIDHIRFHHDLKRIETQGDKIYADVHEDLDISINGKTIHIRTRVHIISQKYDGRWLNTEHKVE” showed a protease stability score of 0.548.
Regarding “DESERDMETFVRITMDELVTGNEESIEEMLDPNVRLEVNGRQFHGREDATRIISEWIKILGINHRRLEEIRFVDGRAEVIVEIRVGDKRSELILISLKVNGQWRMERFEIRNE”, the protease stability score came to 2.09.
On to “DESERIILHIANEFLHLYATGDEDRLRELADPHVRLDVDGQDVHGRELTQKWWKRFVEEIRIRDLHLKDYYIIGEKYHIEGHTRLHIGDKHVETEIRIHIVVVNGKIKSESFHLR”, for which the protease stability score was 0.541.
In turn, “DESERMVLELARLFLEDLLTGNEDLMSHLADPHAKNDINGVDLHGMEVISKHLSELRLRVLDITEERVQGDKVRIKVEVVIQYGDKWRETEVDLELYIVNGRLKSQIWTIR” returned a protease stability score of 1.08.
“DESHEHIRFWAEIYIRIFETGDWDEMSRLLDPHYRLIQGDKHIVGRERALDHIDKEIKELRIHHIHIKDVKTQGDYVRIDGHVNYNVGDKILRFDFHIKLLVVDGKIKHSEERVR”: the protease stability score was 1.28.
Turning to “DESHELWRRNLELILQSRHTGDEFLTKELFDPRMRSNVNGVELHGMEEMLKFVSEIRIHVEHFRLHRIETQGDKIHIRAHEVINIEIGDYHVRLDTWVEMHDVKYNGRWFNTEVHIR”, the protease stability score turned out to be 0.979.
Regarding “DESHESLHKMLKVRYEALHTGDESMLNELLDPDARFNVDGRIHHGRERAVRYNERIPNLTTRDLKVHDWKVIGDKIHIDGRLEGHWNGKHHIINEEIIVQKINGKWLIEEVIVR”, the protease stability score was 0.109.
For the sequence “DESHQLMLELLEELFHLLLTGNEETILRLADPNTRLQINGQETHGRESARHYWQRFLEHWRLKDYRIRSLYSQGDKAIIHTEVVLHYNGRDFRVTTEIRLWVFDGKIHEIIIIIN”, the protease stability score stood at 1.53.
For “DESHRESKLANELLKLALHTGDEDLLRELLDPRMRLEIGDKEFIGRDIMVQAMHEFYRELGVKHTDLKIKRVEIQGNKVINEGILWFHVGDKEHWVSTEFQSVKVNGRWLLQVFSIK”, the protease stability score came out at 1.35.
For the sequence “DESKDDSRRAVNLVVRTIQTGDWDLLIELLDPNVKIEINGQDLHGRETLFKTWLDEMRKLGVDRVHVELKHIEVQGEKVIVHVDVSVNGRDIKTEIIIHKVDGKWFIKSLHFK”, the protease stability score turned out to be 1.31.
Next, “DESKEAAELFIKQVERSTKTGDERLFEEFIDPHMRLEIGEFDYHGREFLHITLRDLGMEIRTFIVKDIKVQGDKARIRVEEHIQVNGVEQRRQVKYVIDKFDGRWEIHSVHFD”: 0.392; “DESKESARSFEDLLQEVRRTGDERKLVNLIDPHVKININGKIFHGWEDLEREFHRIKNIRFHVERMRVVGDKIDVRGTLHVDGQTVDTEIDVYKIDGRWAIESLRIG”: 1.43.
In turn, “DESKEVSEDALRIMIELIKTGDEHLLQRYIDPDVRVDVNGRHTHGWHWVVRQIFEEIKRVDHMRIHLDSERVFNGRVHLDVTIHVHINGVEIDIKITLTFHKFDGRWLFHHIKHK” yielded a protease stability score of 0.195.
“DESKRDVKMFHEIFLRAQSTGDEDELSHLADPNVRIHQGEFHNIGMEEFVKHIREMRVHVRDSHIERVEIQGDKLIVEVRLHMEIRYNGQRTERDVNLHLIIIKINGRWILHSIHIE” came in with a protease stability score of 1.02.
Next, “DESMTEAKQILETLNKSLNTGDERLDKELFDPRAKLEFDGREIHGRELILTWLSEWRIEIKDFRIEDIEFQGNKVKMHTRIDMTVDFNGRRIKIDTTMHHDVIKVNGRWLIQRQIIP”: 1.12; “DESQEIAIEASKRLYNHLLTGDEDNLKRLLDPHVRIEIDGRDIHGMEEVTRLKREWRFDSIEIRVDSVRDVNGRLDVKGHMRYHVRIGDKSHDREVKMHLTAEKIDGRWHNKSIHFE”: 1.26.
Sequence “DESQHVAEKVYKHLLKYWVTGDEDSVSRLVDPHARLHFEGRDLHGRHLISQFRMEWRLDHVHVDDMQVQGDKMEVRGKLDTTIDGRRTNLNEHLRLEKIDGRWYIREIRIE” yielded a protease stability score of 1.25.
The sequence “DESQRDAHHASELVELVEKTGDWKMFEKLLDPHVRLQVGDKEFHGRHEAMRWIRETLERLGIDHREVRIEHIEFIGDKMIIHGEIILRFNGVTITHEEEFIVKKINGKWRMHEIRVR” registered a protease stability score of 1.29.
Next, “DESREIAHKFLEIWIDAFKTGDEDLNSELLDPNTRRDVGDFRIHGMELIVKIMSKELEKYKGITFRVKIRHSTWQGDKIHLIVDILIIIGDKEERIETHFILEKIDGRWITTHMQIR”: 1.34; “DESRESLEEALKIYIHDIKTGDEKSLTELADPNARLNFNGRWHHGREMVTKWMSEMRLHDFKLHELDVQGDKVHIRGEIFFEIDGRVIRSEIHIVMIKINGRWLLHSMHVE”: 1.17; “DESRKAMRIALEIIEHMWRTGDETLRHELADPNTRVRIGDKELHGREELIRLWKELGFKHIEEIDLESIFVQGDKIHIDTRVHGEINGRHEVMRVVLIIHKIDGKWLIHSESHR”: 1.49.
“DESRREVRHFIDLWIELVETGDEDTIRHLADPHVKIVIGEKEDWGMEVFFRDFRRLGVDHMEIIVHRVDVIGNKAHVDFELRVHVDGQEFRFRLRLIVHKINGRWILRTIEIH” gave a protease stability score of 1.68.
The sequence “DESTEHLHRFFDLLIEWIRTGDEESLNKNADPNTRVEAENHEEHGREKFSKHLSEIMTHMRSHFVLRHVSFVGDKAIFDVEVIIIVNGREIKVRTFIIVVKINGRWLLKSVHIE” returned a protease stability score of 1.6.
Next, “DESTENLREFIRVLLHLWETGNEDEFLRMADPNALVYDEHEYDHGWKAWKKLLEQYDVVTSIIPRHIRLIGDKVDIHTNLYMLINGRTVEVHTELLVKKIDGQWRIKFFLIR”: 1.63; “DESTEVLERIMKDFLDELRTGDWEKFMELADPNVRLHFNGVTNHGREEVTRYFREHLARFDHYEIENHRVTLVGDKLHLDVILRVHQGDKFREYKVEIRVVVYDGKIKEVHIIIR”: 2.44.
The sequence “DESTHNRKIAVEILEHDNKTGDEKSIFRLFDPHVKIEVDGRDYHGREFFEEFIRKLGWTNIELTIKDVRSIGEFAEMRMEVRYGDWHFHTKVDVKKYNGQWLNREVRIA” yielded a protease stability score of 1.44.
